Key:
Nsp3 Ubl1 [1] = target: T1, Nsp3 Ubl1 (SARS-CoV-2, UniProt P0DTD1 819-929); assay: EMSA; 3.8 uM Ubl1; details: protein: recombinant; tags: His tag removed by thrombin; single strand
Nucleocapsid protein N [2] = target: T2, Nucleocapsid protein N (SARS-CoV-2, UniProt P0DTC9 1-419); assay: EMSA; 3.8 uM N, 2.5 uM DNA; displaced by Ubl1; details: protein: recombinant; tags: N-terminal His6-TEV, tag removed; chain copies: 2; single strand
Nucleocapsid protein N [3] = target: T2, Nucleocapsid protein N; assay: MST; no Ubl1; 40 nM RNA; details: protein: recombinant; tags: N-terminal His6-TEV, tag removed; chain copies: 2; label: 5'-Cy5; single strand
Nsp3 Ubl1 [4] = target: T1, Nsp3 Ubl1; assay: MST; Ubl1 1, 5, 10 uM; details: protein: recombinant; tags: His tag removed by thrombin; label: 5'-Cy5; single strand
Nucleocapsid protein N [5] = target: T2, Nucleocapsid protein N; assay: EMSA; details: protein: recombinant; tags: N-terminal His6-TEV, tag removed; chain copies: 2; single strand

Binder	binding result (Nsp3 Ubl1 [1])	binding result (Nucleocapsid protein N [2])	Kd (Nucleocapsid protein N [3])	binding result (Nsp3 Ubl1 [4])	binding result (Nucleocapsid protein N [5])
TGTTCTCTAAACGAACT (ssDNA) [17-mer TRS ssDNA]	no binding	binds			
UCUAAACGAAC (ssRNA) [11-mer TRS ssRNA]			5.1 ± 0.6 µM	no binding	
UGUUCUCUAAACGAACU (ssRNA) [17-mer TRS ssRNA]	no binding				binds

Source: PMC9938351, “Structural insights into ribonucleoprotein dissociation by nucleocapsid protein interacting with non-structural protein 3 in SARS-CoV-2”
